Laboratory results: article PMC12594171, “DKK3-LRP1 complex and a chemical inhibitor regulate Aβ clearance in models of Alzheimer’s disease” (Science Advances, 2025)

Target: mLRPIV-HA, stably expressed in SH-SY5Y
Test: co-IP + ELISA; SH-SY5Y cells stably expressing mLRPIV-HA incubated with Aβ42 and 1 to 200 nM DKK1 or DKK3; mLRPIV-HA precipitated with anti-HA affinity gel; Aβ42 in the eluate by ELISA

DKK3-Flag, sequence (Q9UBP4 22-350): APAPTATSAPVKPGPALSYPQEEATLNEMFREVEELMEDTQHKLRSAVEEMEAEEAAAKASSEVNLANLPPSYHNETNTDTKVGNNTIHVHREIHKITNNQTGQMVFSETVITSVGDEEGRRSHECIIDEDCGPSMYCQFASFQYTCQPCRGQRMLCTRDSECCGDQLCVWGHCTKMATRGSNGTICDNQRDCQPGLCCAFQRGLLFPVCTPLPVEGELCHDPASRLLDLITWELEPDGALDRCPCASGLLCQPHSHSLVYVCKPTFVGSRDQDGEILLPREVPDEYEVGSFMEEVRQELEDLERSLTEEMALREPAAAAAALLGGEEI

percent reduction of Aβ42 binding to mLRPIV at 20 nM DKK3: 60%
Substance: DKK3-Flag (from UniProt Q9UBP4 22-350) (ligand)
